Earlier results in US6632836B1, “Carbocyclic potassium channel inhibitors” (Merck & Co., Inc., priority 1998, dated 2003).
pIC50: −log10 of the molar value.

Target: T1, Kv1.3 channels (Homo sapiens, UniProt P22001)
T1 construct: expressed in transfected cells; host or cells: CHO cells
Details: reference blocker used at saturating concentration to establish the efflux window; read-out: IC50 as blocker of Kv1.3 channels

T1 sequence (P22001 whole entry): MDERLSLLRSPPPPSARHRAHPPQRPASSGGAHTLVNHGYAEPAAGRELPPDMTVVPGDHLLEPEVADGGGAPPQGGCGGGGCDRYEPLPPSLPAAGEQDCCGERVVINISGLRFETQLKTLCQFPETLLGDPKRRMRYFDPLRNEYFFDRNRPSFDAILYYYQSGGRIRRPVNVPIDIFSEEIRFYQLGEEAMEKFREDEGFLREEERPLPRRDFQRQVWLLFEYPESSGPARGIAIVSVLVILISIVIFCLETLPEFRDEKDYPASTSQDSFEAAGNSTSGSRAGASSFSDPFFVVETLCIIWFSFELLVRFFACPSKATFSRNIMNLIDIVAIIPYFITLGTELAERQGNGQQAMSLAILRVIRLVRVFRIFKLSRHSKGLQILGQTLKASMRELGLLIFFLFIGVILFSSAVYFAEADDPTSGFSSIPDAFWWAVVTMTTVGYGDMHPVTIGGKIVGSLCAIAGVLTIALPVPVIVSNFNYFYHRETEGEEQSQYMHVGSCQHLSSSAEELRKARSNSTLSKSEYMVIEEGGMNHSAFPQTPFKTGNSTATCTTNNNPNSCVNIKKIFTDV

margatoxin (TIINVKCTSPKQCLPPCKAQFGQSAGAKCMNGKCKCYPH; UniProt P40755 1-39, looked up)
pIC50: 10.00
